{
  "source": "paper doi:10.1101/2020.05.11.088153",
  "key": {"[1]": {"target": "βPFO_(Aβ(1-42)) tetramer (membrane-associated β-sheet pore forming tetramer of Aβ(1-42)) (UniProt P05067)", "assay": "native MS"}, "[2]": {"target": "βPFO_(Aβ(1-42)) tetramer (membrane-associated β-sheet pore forming tetramer of Aβ(1-42)) (UniProt P05067)", "assay": "SEC"}, "[3]": {"target": "βPFO_(Aβ(1-42)) tetramer (membrane-associated β-sheet pore forming tetramer of Aβ(1-42)) (UniProt P05067)", "assay": "ITC"}},
  "note": "Where “and” joins values, the source holds several entries; their conditions need not be identical. Equal values may be shown once.",
  "data": [
    {"substance": "somatostatin-14 (from UniProt P61278 103-116) (peptide)", "values": [
      {"measurement": "stoichiometry N", "setting": "[1]", "value": "1 and 2"},
      {"measurement": "increase of the area under the tetramer peak", "setting": "[2]", "value": 20, "unit": "%"},
      {"measurement": "Kd", "setting": "[3]", "value": 23, "unit": "µM"},
      {"measurement": "stoichiometry N", "setting": "[3]", "value": 2}
    ]}
  ]
}
